B1: Proto-oncogene Wnt-3 (Homo sapiens), P56703 (parent)
chain: MEPHLLGLLLGLLLGGTRVLAGYPIWWSLALGQQYTSLGSQPLLCGSIPGLVPKQLRFCRNYIEIMPSVAEGVKLGIQECQHQFRGRRWNCTTIDDSLAIFGPVLDKATRESAFVHAIASAGVAFAVTRSCAEGTSTICGCDSHHKGPPGEGWKWGGCSEDADFGVLVSREFADARENRPDARSAMNKHNNEAGRTTILDHMHLKCKCHGLSGSCEVKTCWWAQPDFRAIGDFLKDKYDSASEMVVEKHRESRGWVETLRAKYSLFKPPTERDLVYYENSPNFCEPNPETGSFGTRDRTCNVTSHGIDGCDLLCCGRGHNTRTEKRKEKCHCIFHWCCYVSCQECIRIYDVHTCK

Variants of: B1
Conditions: with lrp6_human LRP6, O75581
Sequence of lrp6_human LRP6, O75581 (O75581 whole entry): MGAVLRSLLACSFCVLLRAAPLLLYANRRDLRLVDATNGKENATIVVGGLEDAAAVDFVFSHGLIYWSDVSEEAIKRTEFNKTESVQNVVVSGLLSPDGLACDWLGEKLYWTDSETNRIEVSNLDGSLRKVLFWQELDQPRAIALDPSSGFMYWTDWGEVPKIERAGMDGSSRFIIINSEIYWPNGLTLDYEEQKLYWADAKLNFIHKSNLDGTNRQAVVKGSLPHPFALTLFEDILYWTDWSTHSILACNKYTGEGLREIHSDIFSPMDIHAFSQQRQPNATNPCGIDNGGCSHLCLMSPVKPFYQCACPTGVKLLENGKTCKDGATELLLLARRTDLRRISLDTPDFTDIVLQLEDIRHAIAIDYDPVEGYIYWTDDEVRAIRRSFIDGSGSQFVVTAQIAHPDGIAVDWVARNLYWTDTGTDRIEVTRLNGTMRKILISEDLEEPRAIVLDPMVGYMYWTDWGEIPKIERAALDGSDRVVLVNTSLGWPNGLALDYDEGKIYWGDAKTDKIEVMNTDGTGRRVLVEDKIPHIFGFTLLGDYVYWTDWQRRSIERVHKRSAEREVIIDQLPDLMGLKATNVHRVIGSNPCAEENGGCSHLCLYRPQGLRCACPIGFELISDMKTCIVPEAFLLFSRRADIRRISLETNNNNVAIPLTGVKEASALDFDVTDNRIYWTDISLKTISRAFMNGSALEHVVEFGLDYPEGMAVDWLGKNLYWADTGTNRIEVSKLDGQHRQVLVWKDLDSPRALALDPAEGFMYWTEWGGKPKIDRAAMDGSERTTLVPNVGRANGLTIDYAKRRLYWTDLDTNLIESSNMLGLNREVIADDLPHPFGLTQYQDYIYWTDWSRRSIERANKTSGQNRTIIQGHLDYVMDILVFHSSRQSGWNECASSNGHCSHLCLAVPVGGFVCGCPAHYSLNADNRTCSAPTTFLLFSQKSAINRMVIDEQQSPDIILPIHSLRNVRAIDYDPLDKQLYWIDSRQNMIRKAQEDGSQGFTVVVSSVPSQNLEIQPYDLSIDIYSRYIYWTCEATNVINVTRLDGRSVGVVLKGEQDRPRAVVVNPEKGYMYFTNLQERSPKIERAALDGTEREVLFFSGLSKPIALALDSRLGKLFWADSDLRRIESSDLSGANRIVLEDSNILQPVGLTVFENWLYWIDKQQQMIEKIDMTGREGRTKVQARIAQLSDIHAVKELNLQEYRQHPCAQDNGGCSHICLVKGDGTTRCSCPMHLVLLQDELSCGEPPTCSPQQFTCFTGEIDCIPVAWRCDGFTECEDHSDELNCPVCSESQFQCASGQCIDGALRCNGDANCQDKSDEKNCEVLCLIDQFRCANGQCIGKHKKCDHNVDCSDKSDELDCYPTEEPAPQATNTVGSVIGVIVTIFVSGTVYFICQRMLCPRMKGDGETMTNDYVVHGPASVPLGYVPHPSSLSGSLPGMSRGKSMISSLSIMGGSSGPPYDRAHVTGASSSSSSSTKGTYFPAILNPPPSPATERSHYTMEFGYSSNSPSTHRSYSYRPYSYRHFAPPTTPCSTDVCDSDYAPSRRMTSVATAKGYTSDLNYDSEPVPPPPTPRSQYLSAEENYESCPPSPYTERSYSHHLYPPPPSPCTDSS

Q: Which “effect of a mutation on the interaction” value does the source give for R253E here?
A: disrupting interaction
